Broadly, the stoichiometry N is a count of units in the complex or per binding partner.

Drawing on paper PMC2288870, this text covers stoichiometry N for two substances.

In assay [1] the target is 50-kD chymotryptic fragment of thrombospondin (human). As to the kind of experiment: non-reducing SDS-PAGE.
Assay [2] addresses 70-kD chymotryptic fragment of thrombospondin (human). The experiment in a line: non-reducing SDS-PAGE.

In the case of “50-kD chymotryptic fragment of thrombospondin (domain or fragment)”, the stoichiometry N in assay [1] amounted to 3.
“70-kD chymotryptic fragment of thrombospondin (domain or fragment)”: the stoichiometry N in assay [2] was 3.
